Data from patent US20260176659A1, “IMPROVED METHOD FOR THE PRODUCTION OF NATURAL VANILLIN” (BASE SE, priority 2022, published 2026).
Several values for one entry are separate records, joined by “and”; a condition that tells them apart may be missing. Equal entries are not always repeated. One block for each molecule: values may come before it.

What was measured:
[1] = Bioconversion of eugenol to vanillin: one-pot concurrent cascade EUGO + alkene cleavage oxygenase (5 mM scale); assay type: biochemical; settings: for Product distribution after 24 hours 2a (%) / Product distribution after 24 hours 3a (%) / Product distribution after 24 hours 5a (%): Table 8b, EUGO FD-CFE 1 mg/mL, CO-0X FD-CFE 1 mg/mL, catalase 10 mg/mL, eugenol 5 mM; for Reaction composition at 24 hours (%) 1a / Reaction composition at 24 hours (%) 2a / Reaction composition at 24 hours (%) 3a / Reaction composition at 24 hours (%) 5a / Conversion of 1a to 3a (%): EUGO fresh CFE 1 mg/mL, IECO 0 mg/mL; for Conversion of 1a to 3a (%): 24 h
Description: Stock solutions of eugenol (100 mM) were prepared in ethanol or DMSO and stored at −20° C. Unless otherwise stated, the reaction mixtures (0.5 mL) were set up in 1.5 mL glass vials as follows: freeze-dried cell free extract of IECO/CO-XX (3 mg) and EUGO (0.5 mg) were dissolved in the reaction buffer (50 mM glycine-NaOH pH 9.0) containing sodium ascorbate (1 mM), FeSO4 (1 mM) and bovine liver catalase (5 mg, Sigma Aldrich C40). The reaction was initiated by the addition of 0.025 mL eugenol stock (final concentration 5 mM), then incubated at 30° C. and 120 rpm overnight (rotary shaker). The final content of cosolvent was 5% v/v. To improve oxygenation, the vials were placed horizontally. At certain time points, samples (0.2 mL) were quenched with methanol (0.4 mL) and the mixture was centrifuged at 20238 g for 5-10 mins. Finally, the supernatant was analysed by HPLC.
EUGO (0.5 mg CFE), CO-25 (3 mg CFE) and catalase (5 mg, Sigma product #C40) were dissolved in 50 mM Glycine-NaOH pH 9.0 or Tris-HCl pH 8.0 together with FeSO4 (1 mM) and sodium ascorbate (1 mM). Note that the buffer content of the freeze-dried biocatalyst prep was not considered for the assembling of the reaction. The reaction was started by the addition of 5 mM eugenol from a 20× stock in ethanol. The reactions—performed in glass vials—were then incubated at 30° C. and 120 rpm (25 mm shaker). Finally, samples of the reaction mixture were diluted with MeOH and analyzed by HPLC at 280 and 340 nm.

[2] = Biotransformation of eugenol to coniferyl alcohol by EUGO (50 mM scale); assay type: biochemical
Description: The biotransformation (total volume 3 mL) was performed in a 10 mL round bottom flask with a stir bar. Eugenol (0.023 mL, 25 mg, 0.15 mmol, 1.0 equiv., 50 mM final conc.) was dissolved in DMSO or ethanol (0.150 mL). Then, the solution was diluted with Tis-HCl buffer (50 mM, pH 8.0, 2.827 mL). To obtain a homogeneous dispersion of the eugenol droplets, the mixture was stirred for about 15-20 mins. Then bovine liver catalase (Sigma P #C40, 30 mg, 2300 kU) and EUGO (30 mg of freeze-dried cell free extract, Tris base salt content was neglected) were added consecutively (note: EUGO was added after the catalase was completely dissolved). The reaction was incubated at room temperature and gentle stirring (40 rpm) for 17-24 hours. At certain time points, samples (0.1 mL) were diluted with methanol (0.8 mL, 8 vol equiv.) for stopping the reaction. The samples were centrifuged at 20238×g for 10 mins and the supernatant was analyzed by HPLC. When the reaction was completed, the products were extracted with ethyl acetate (3×1.5 mL EtOAc, in 2 mL microcentrifuge tubes). The aqueous and organic phases were separated by centrifugation (20238×g for ˜3 mins). Then, the organic phase was dried with NaSO4 and concentrated under reduced pressure (40° C., 200 mbar), but not dried completely to avoid polymerization. The concentrate was directly purified by silica gel chromatography (10 mL column volume) using a mixture of 1:1 etylacetate:cyclohexane as eluent. Fractions containing coniferyl alcohol (according to TLC) were combined and concentrated under reduced pressure (40° C., 200 mbar). Final drying under high vacuum (1.5 mbar) and inert gas flow yielded the title compound as yellowish solid (24.2 mg, 0.134 mmol, 90% yield). Notes: The obtained product was stored at −20° C. under inert gas atmosphere. Evaporation of a product solution in chloroform induced polymerization, therefore, no crude NMR was taken before product purification.

[3] = EUGO FD-CFE 10 mg/mL, eugenol 50 mM, catalase 10 mg/mL, pH 8.0, 5% v/v DMSO, room temperature, 17 hours
[4] = EUGO FD-CFE 10 mg/mL, eugenol 50 mM, catalase 10 mg/mL, pH 8.0, 5% v/v DMSO, room temperature, 24 hours

Product distribution after 24 hours 2a (%) ([1]; pH 8.0): 69.4%
Product distribution after 24 hours 3a (%) ([1]; pH 8.0): 15.0%
Product distribution after 24 hours 5a (%) ([1]; pH 8.0): 15.6%
Product distribution after 24 hours 2a (%) ([1]; pH 9.0): 63.2%
Product distribution after 24 hours 3a (%) ([1]; pH 9.0): 16.8%
Product distribution after 24 hours 5a (%) ([1]; pH 9.0): 20.0%
B1: CO-22: alkene cleavage oxygenase, Pseudomonas kilonensis, SEQ ID NO: 128 (protein, listed as Pseudomonas kilonensis)
chain: MTIPFPQTSEFSGALYTPSRVEAELFDLEVEGTLPAEIRGAFYQVAPDPQYPPMLGTDIFFNGDGMVTGFYFANGKVSMRRRYVKTDRLMAQRREGRSLNGVYRNLYTNDPLAAKNNTTANTTVIPHNGVLLALKEDALPWAMDLETLETLGEWTFDGQIKAATFTAHPKRDPATGNLLAFSYEAKGDGTPDIAYFEISPDGKLLHEIWFQAPYAAMVHDFAVTERYVVFPLIPLTVDVERMKNGGPHFQWQPDLPQLFAVVPRNGNAQDVRWFKGPKDSFQGHTLNAFDEDGKVYVDMPVTGGNVFYFFPQADGYVPPPETLAASLMRWTFDLSSPQDEVEPQPLTEYPCEFPRCDDRYIGRKYQHGFLLAFDPERPYNPANGPIPFQFFNLLVHLNLKTGSTDAWFPGDSGCFQEPIFIPRSADAEEADGYVVALLNLIAEGRSELVVLDSRDMAGGPIARIRIPFRMRMSLHGCWAPSD

Product distribution after 24 hours 2a (%) ([1]; pH 8.0): 78.5%
Product distribution after 24 hours 3a (%) ([1]; pH 8.0): 6.1%
Product distribution after 24 hours 5a (%) ([1]; pH 8.0): 15.4%
Product distribution after 24 hours 2a (%) ([1]; pH 9.0): 73.9%
Product distribution after 24 hours 3a (%) ([1]; pH 9.0): 5.6%
Product distribution after 24 hours 5a (%) ([1]; pH 9.0): 20.5%
B2: CO-24: alkene cleavage oxygenase, Pseudomonas ogarae, SEQ ID NO: 132 (protein, listed as Pseudomonas ogarae)
chain: MSIPFPQTPEFSGVLYTPSRVEAEVFDLEIEGILPASICGTFYQVAPDPQYPPMLGNDIFFNGDGVVSRFNFANGKVSMRRRYVKTDRLLAQRREGRSLNGVYRNVYTNDPLAAKNNTTANTTVIPHNGVLLALKEDALPWALDLETLETLGEWTFDGQIKAATFTAHPKLDPVTGNLLACSYEAKGDGTPDLAYFEISPDGKLLHEIWFQAPYAAMVHDFAVTERYVVFPLIPLTVDVERMKNGGPHFQWQPDLPQLFAIVPRNGCGQDVRWFKGPKDGFQGHTLNAFDEDGKVYVDMPVTGGNIFYFFPQADGYVPPPETLAASLMRWTFDLNGAQEDVQPQPLTEYPCEFPRCDDRYIGRKYQHGFLLAFDPERPYNPANGPIPFQFFNLLAHLDLQTGRTDAWFPGDSGCFQEPIFIPRSADAEEADGYVVALLNLIAEGRSELVVLDTRDMASGPIARIRIPFRMRMSLHGCWAPND

Reaction composition at 24 hours (%) 1a ([1]; cosolvent DMSO 5% v/v, 5 mM 1a): 1≤ %
Reaction composition at 24 hours (%) 2a ([1]; cosolvent DMSO 5% v/v, 5 mM 1a): 96%
Reaction composition at 24 hours (%) 3a ([1]; cosolvent DMSO 5% v/v, 5 mM 1a): 1≤ %
Reaction composition at 24 hours (%) 5a ([1]; cosolvent DMSO 5% v/v, 5 mM 1a): 2%
Reaction composition at 24 hours (%) 1a ([1]; cosolvent EtOH 5% v/v, 5 mM 1a): 1≤ %
Reaction composition at 24 hours (%) 2a ([1]; cosolvent EtOH 5% v/v, 5 mM 1a): 97%
Reaction composition at 24 hours (%) 3a ([1]; cosolvent EtOH 5% v/v, 5 mM 1a): 1≤ %
Reaction composition at 24 hours (%) 5a ([1]; cosolvent EtOH 5% v/v, 5 mM 1a): 2%
time in which the oxidation step (1a to 2a) occurs ([1]; one pot concurrent cascade EUGO-IECO, 5 mM 1a, time studies): within the first two hours
B3: EUGO: eugenol oxidase from Rhodococcus jostii (Uniprot: Q0SBK1), SEQ ID NO: 2, used as cell free extract (protein)
chain: MTRTLPPGVSDERFDAALQRFRDVVGDKWVLSTADELEAFRDPYPVGAAEANLPSAVVSPESTEQVQDIVRIANEYGIPLSPVSTGKNNGYGGAAPRLSGSVIVKTGERMNRILEVNEKYGYALLEPGVTYFDLYEYLQSHDSGLMLDCPDLGWGSVVGNTLDRGVGYTPYGDHFMWQTGLEVVLPQGEVMRTGMGALPGSDAWQLFPYGFGPFPDGMFTQSNLGIVTKMGIALMQRPPASQSFLITFDKEEDLEQIVDIMLPLRINMAPLQNVPVLRNIFMDAAAVSKRTEWFDGDGPMPAEAIERMKKDLDLGFWNFYGTLYGPPPLIEMYYGMIKEAFGKIPGARFFTHEERDDRGGHVLQDRHKINNGIPSLDELQLLDWVPNGGHIGFSPVSAPDGREAMKQFEMVRNRANEYNKDYAAQFIIGLREMHHVCLFIYDTAIPEAREEILQMTKVLVREAAEAGYGEYRTHNALMDDVMATFNWGDGALLKFHEKIKDALDPNGIIAPGKSGIWSQRFRGQNL
modifications: cell free extract; Rhodococcus Jostii
Conversion of 1a to 3a (%) ([1]; cosolvent DMSO 5% v/v, 5 mM 1a): 1≤ %
Conversion of 1a to 3a (%) ([1]; cosolvent EtOH 5% v/v, 5 mM 1a): 1≤ %
2a [2, 3]: 48 mM and 41 mM
Reaction composition (%) 2a [2, 3]: 95% and 76%
Reaction composition (%) 5a [2, 3]: 4% and 3%
2a [2, 4]: 50 mM
Reaction composition (%) 1a [2, 4]: 0%
Reaction composition (%) 2a [2, 4]: 95%
Reaction composition (%) 5a [2, 4]: 5%
time within which the substrate was consumed ([2]; EUGO cell free extract, 50 mM 1a): ≤ 24 h

Product distribution after 24 hours 2a (%) ([1]; pH 8.0): 69.0%
Product distribution after 24 hours 3a (%) ([1]; pH 8.0): 13.7%
Product distribution after 24 hours 5a (%) ([1]; pH 8.0): 17.3%
Product distribution after 24 hours 2a (%) ([1]; pH 9.0): 67.0%
Product distribution after 24 hours 3a (%) ([1]; pH 9.0): 13.6%
Product distribution after 24 hours 5a (%) ([1]; pH 9.0): 19.4%
B4: CO-23: alkene cleavage oxygenase, Pseudomonas viciae, SEQ ID NO: 130 (protein, listed as Pseudomonas viciae)
chain: MTIPFPQTPEFSGALYTPSRVEAEVFDLEIEGVLPASIGGTFYQVAPDPQYPPMLGNDIFFNGDGVVSRFNFANGKVSMRRRYVKTDRLLAQRREGRSLNGVYRNVYTNDRLAAKNNTTANTTVIPHNGVLLALKEDALPWAMDLDTLETLGEWTFDGQIKSATFTAHPKLDPVTGNLLACSYEAKGDGTPDLAYFEISPDGKLLHEIWFQAPYAAMVHDFAVTERYVVFPLIPLTVDVERMKNGGPHFQWQPDLPQLFAVVPRNGNAQDVRWFKGPKDGFQGHTLNAFDEDGKVYVDMPVTGGNIFYFFPQADGYVPPPETLAASLMRWTFDLNSALDEVEPQPLTDYPCEFPRCDDRYIGRKYQHGFLLAFDPERPYNPANGPIPFQFFNLLVHLNLKTGITDAWFPGDSGCFQEPIFIPRSADAEEADGYVVALLNLIAEGRSELVVLDSRDMASGPIARIRIPFRMRMSLHGCWTADPN
